Measurements: patent publication US20160033516A1 (SALK INSTITUTE FOR BIOLOGICAL STUDIES, published 2016)

B1: anti-3-pHis mAb SC39-4 (antibody, V domains shown, not shown: a dimerising Fc or GST)
VH: ESGGRLVTPGGSLTLTCTVSGFSLSRYNMGWVRQAPGKGLEWIGWIPFRGSLKYATWATGRFTISRTSTTVDLRMTGLTAADTATYFCVRSSDGFDLWGPGTLVTVSS
VL: QFVMTQTPASVEAVVGGTVTIKCQASRDTGDGLIWYQQKPGQPPKRLIYKASTVASGVPSRFKGRGSGTDFTLTISDLECADAATYYCHSNFYNRWTYGNAFGGGTEVVVKG
notes: Rabbit hybridoma monoclonal IgG, used as whole IgG (free or crosslinked to protein-A agarose)

How the values were obtained:
[1] = molecular target: ACLY-like H760 peptide AGAG-X-AGAG, X = 1-pTza (mammalian); test: synthetic peptide dot blot array
[2] = molecular target: GNB1 H266 peptide MTYS-X-DNII, X = 1-pTza (mammalian); test: synthetic peptide dot blot array
[3] = molecular target: Histone H4 H18 peptide GAKR-X-RKVL, X = 1-pTza (mammalian); test: synthetic peptide dot blot array
[4] = molecular target: NME1 H118 peptide RNII-X-GSDS, X = 1-pTza (mammalian); test: synthetic peptide dot blot array
[5] = molecular target: ACLY (ATP-citrate lyase) in mammalian cell lysates (human) (UniProt P53396); test: SILAC LC-MS/MS of mAb column eluate E1, FLAG-NME1 293 lysate, untreated over acid/heat-treated
[6] = molecular target: GAPDH in lysates of FLAG-NME1 HEK 293 cells (human) (UniProt P04406); test: as above
[7] = molecular target: Histone H4 in lysates of FLAG-NME1 HEK 293 cells (human) (UniProt P62805); test: as above
[8] = molecular target: LDHA in lysates of FLAG-NME1 HEK 293 cells (human) (UniProt P00338); test: as above
[9] = molecular target: NME1 in lysates of FLAG-NME1 HEK 293 cells (human) (UniProt P15531); test: as above
[10] = molecular target: NME2 in lysates of FLAG-NME1 HEK 293 cells (human) (UniProt P22392); test: as above
[11] = molecular target: RPS3A in lysates of FLAG-NME1 HEK 293 cells (human) (UniProt P61247); test: as above
[12] = molecular target: TCP1 in lysates of FLAG-NME1 HEK 293 cells (human) (UniProt P17987); test: as above
[13] = molecular target: TUBB in lysates of FLAG-NME1 HEK 293 cells (human) (UniProt P07437); test: as above
[14] = molecular target: ACLY (ATP-citrate lyase) in mammalian cell lysates (human) (UniProt P53396); test: SILAC LC-MS/MS of mAb column eluate E2, FLAG-NME1 293 lysate, untreated over acid/heat-treated
[15] = molecular target: GAPDH in lysates of FLAG-NME1 HEK 293 cells (human) (UniProt P04406); test: as above
[16] = molecular target: Histone H4 in lysates of FLAG-NME1 HEK 293 cells (human) (UniProt P62805); test: as above
[17] = molecular target: LDHA in lysates of FLAG-NME1 HEK 293 cells (human) (UniProt P00338); test: as above
[18] = molecular target: NME1 in lysates of FLAG-NME1 HEK 293 cells (human) (UniProt P15531); test: as above
[19] = molecular target: NME2 in lysates of FLAG-NME1 HEK 293 cells (human) (UniProt P22392); test: as above
[20] = molecular target: PGAM, endogenous, in lysates of FLAG-NME1 HEK 293 cells (human) (UniProt P18669); test: as above
[21] = molecular target: RPS3A in lysates of FLAG-NME1 HEK 293 cells (human) (UniProt P61247); test: as above
[22] = molecular target: SCS (succinyl-CoA synthetase) in mammalian cell lysates (human) (UniProt P53597); test: as above
[23] = molecular target: TCP1 in lysates of FLAG-NME1 HEK 293 cells (human) (UniProt P17987); test: as above
[24] = molecular target: TUBB in lysates of FLAG-NME1 HEK 293 cells (human) (UniProt P07437); test: as above
[25] = molecular target: YWHAB in lysates of FLAG-NME1 HEK 293 cells (human) (UniProt P31946); test: as above
[26] = molecular target: 506 proteins enriched by at least 2-fold in 3-pHis column elutions E1-E3; test: SILAC LC-MS/MS of mAb column eluates E1-E3, FLAG-NME1 293 lysate
[27] = molecular target: PGAM, endogenous, in lysates of FLAG-NME1 HEK 293 cells (human) (UniProt P18669); test: SILAC LC-MS/MS of mAb column eluate E1, FLAG-NME1 293 lysate, untreated over acid/heat-treated
[28] = molecular target: YWHAB in lysates of FLAG-NME1 HEK 293 cells (human) (UniProt P31946); test: as above
[29] = molecular target: GNB1 in lysates of FLAG-NME1 HEK 293 cells (human, UniProt P62873 2-340, phosphohistidine, annotated site printed H226 in Table 1 (H266 elsewhere)); test: SILAC LC-MS/MS of mAb column eluate E2, FLAG-NME1 293 lysate, untreated over acid/heat-treated
Method: A dramatic decrease of pHis in the heavy lysates was confirmed by immunoblotting. Both lysates were neutralized, diluted (1:5 to 1 M urea, pH 8), mixed together and one half was passed over the 1-pHis mAb column while the other half was passed over the 3-pHis mAb column. LC-MS/MS analysis was performed on tryptic peptides derived from proteins that eluted off the columns at pH 11. A SILAC ratio (light/heavy) was calculated for each peptide to determine which proteins were enriched in the untreated, light vs. heavy lysates that had been treated to reduce pHis.
After crosslinking, pHis mAb resins (˜750 μl each) were packed in 10 ml chromatography columns (BioRad) and stored at 4° C. in or equilibrated with Wash/Binding Buffer (50 mM Tris, 30 mM sodium carbonate pH 8 (prepared by dilution of 100 mM sodium carbonate buffer pH 10 with H₂O and 1 M Tris pH 7)). Stable isotope labeling by amino acids in cell culture (SILAC) was performed on FLAG-NME1 293 cells which were metabolically labeled with Arg (¹³C₆/¹⁵N₄) and Lys (¹³C₆). These “heavy” labeled cells were used as an internal negative control for pHis mAb binding. Non-labeled, “light” FLAG-NME1 293 cells were cultured in parallel. For cell lysis, precautions were taken to preserve pHis and avoid salts and detergents that can interfere with downstream MS analysis. […]

TCP1 in lysates of FLAG-NME1 HEK 293 cells (human), sequence (P17987 whole entry): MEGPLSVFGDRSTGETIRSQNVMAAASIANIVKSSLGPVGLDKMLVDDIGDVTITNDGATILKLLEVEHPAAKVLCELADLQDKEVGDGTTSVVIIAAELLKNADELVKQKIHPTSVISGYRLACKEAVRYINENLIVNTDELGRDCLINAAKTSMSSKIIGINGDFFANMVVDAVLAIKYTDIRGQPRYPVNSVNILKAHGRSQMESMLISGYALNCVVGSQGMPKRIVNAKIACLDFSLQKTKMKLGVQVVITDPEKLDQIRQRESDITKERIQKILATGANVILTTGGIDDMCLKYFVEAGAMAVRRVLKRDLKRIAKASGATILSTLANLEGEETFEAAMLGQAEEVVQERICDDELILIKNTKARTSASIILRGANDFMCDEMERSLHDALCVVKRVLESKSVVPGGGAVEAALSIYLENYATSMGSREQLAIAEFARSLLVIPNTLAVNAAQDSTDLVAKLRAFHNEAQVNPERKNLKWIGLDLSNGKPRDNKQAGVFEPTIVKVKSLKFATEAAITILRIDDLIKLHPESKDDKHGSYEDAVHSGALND
TUBB in lysates of FLAG-NME1 HEK 293 cells (human), sequence (P07437 whole entry): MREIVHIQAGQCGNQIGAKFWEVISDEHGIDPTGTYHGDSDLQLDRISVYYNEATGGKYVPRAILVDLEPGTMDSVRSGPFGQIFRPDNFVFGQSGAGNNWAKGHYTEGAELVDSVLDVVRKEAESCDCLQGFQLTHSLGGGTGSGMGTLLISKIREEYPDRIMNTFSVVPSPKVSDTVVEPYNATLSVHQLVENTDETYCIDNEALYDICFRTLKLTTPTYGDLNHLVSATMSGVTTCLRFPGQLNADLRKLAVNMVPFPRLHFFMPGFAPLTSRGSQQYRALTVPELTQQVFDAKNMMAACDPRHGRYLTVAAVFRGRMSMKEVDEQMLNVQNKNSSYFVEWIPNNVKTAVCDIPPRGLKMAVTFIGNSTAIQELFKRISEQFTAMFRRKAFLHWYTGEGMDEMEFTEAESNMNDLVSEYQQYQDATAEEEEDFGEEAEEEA
PGAM, endogenous, in lysates of FLAG-NME1 HEK 293 cells (human), sequence (P18669 2-254 limits assumed): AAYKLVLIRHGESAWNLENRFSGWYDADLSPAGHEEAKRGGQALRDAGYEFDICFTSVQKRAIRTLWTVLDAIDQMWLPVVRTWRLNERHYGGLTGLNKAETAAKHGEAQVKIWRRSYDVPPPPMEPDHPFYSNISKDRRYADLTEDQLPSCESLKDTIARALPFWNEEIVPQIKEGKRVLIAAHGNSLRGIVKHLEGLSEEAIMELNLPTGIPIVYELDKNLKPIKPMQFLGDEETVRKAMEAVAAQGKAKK
YWHAB in lysates of FLAG-NME1 HEK 293 cells (human), sequence (P31946 whole entry): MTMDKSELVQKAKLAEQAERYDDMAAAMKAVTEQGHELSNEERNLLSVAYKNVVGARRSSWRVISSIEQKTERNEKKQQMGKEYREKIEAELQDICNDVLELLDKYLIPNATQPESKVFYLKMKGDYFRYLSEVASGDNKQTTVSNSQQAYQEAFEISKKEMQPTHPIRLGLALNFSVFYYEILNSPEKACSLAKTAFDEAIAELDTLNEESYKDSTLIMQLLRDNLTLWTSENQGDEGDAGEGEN
ACLY (ATP-citrate lyase) in mammalian cell lysates (human), sequence (P53396 whole entry): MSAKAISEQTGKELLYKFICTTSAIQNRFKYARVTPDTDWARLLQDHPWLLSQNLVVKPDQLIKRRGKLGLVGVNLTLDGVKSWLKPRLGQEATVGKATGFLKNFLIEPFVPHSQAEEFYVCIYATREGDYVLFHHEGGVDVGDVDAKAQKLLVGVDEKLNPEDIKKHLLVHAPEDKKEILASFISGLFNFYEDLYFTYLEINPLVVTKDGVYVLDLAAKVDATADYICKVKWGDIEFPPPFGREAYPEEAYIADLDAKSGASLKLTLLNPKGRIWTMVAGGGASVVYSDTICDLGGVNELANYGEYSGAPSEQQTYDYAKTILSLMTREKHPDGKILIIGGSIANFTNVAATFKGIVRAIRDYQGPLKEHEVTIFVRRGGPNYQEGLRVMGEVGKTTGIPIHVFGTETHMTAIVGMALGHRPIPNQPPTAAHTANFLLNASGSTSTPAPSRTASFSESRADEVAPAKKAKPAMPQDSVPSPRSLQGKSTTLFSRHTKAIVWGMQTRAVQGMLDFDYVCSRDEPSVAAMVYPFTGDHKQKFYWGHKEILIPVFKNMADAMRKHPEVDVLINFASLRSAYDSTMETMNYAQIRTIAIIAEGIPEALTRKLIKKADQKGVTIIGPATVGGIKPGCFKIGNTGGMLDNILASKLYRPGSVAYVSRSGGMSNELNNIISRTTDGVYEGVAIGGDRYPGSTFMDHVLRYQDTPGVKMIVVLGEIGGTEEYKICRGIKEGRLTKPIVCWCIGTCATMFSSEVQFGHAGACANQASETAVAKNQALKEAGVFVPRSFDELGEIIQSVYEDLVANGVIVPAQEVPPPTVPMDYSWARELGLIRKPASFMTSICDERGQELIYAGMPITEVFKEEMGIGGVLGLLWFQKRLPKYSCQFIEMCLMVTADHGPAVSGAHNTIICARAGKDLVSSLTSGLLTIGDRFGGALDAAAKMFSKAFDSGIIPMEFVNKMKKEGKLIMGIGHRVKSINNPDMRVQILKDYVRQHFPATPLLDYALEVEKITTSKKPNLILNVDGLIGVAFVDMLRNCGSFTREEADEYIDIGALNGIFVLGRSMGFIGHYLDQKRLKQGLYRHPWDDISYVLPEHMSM
NME1 in lysates of FLAG-NME1 HEK 293 cells (human), sequence (P15531 2-152 limits assumed): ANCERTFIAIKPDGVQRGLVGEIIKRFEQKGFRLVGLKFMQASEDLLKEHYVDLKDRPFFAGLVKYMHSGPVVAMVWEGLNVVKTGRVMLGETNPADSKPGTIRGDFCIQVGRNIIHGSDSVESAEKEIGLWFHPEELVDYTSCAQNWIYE
GAPDH in lysates of FLAG-NME1 HEK 293 cells (human), sequence (P04406 2-335 limits assumed): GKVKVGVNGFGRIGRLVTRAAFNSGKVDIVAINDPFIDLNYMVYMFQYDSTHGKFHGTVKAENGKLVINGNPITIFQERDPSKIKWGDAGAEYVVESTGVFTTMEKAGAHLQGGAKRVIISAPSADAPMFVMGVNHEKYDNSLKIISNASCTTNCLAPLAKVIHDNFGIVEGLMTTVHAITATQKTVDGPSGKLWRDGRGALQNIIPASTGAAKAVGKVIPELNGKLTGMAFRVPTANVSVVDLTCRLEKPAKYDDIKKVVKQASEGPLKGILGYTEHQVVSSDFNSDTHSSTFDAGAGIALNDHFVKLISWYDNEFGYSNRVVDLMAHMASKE
NME2 in lysates of FLAG-NME1 HEK 293 cells (human), sequence (P22392 whole entry): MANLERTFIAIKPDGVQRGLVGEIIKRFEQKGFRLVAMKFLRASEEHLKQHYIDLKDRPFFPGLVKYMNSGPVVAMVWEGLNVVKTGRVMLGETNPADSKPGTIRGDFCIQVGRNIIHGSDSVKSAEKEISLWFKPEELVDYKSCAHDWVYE
GNB1 in lysates of FLAG-NME1 HEK 293 cells, sequence (P62873 2-340 limits assumed): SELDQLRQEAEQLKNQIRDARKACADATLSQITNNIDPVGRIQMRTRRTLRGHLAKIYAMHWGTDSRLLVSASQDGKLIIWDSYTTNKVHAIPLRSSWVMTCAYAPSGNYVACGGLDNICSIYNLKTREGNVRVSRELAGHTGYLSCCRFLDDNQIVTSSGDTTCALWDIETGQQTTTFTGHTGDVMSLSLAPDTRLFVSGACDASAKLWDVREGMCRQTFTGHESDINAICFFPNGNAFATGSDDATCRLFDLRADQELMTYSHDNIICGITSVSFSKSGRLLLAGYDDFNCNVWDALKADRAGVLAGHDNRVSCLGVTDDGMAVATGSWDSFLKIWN
SCS (succinyl-CoA synthetase) in mammalian cell lysates (human), sequence (P53597 41-346): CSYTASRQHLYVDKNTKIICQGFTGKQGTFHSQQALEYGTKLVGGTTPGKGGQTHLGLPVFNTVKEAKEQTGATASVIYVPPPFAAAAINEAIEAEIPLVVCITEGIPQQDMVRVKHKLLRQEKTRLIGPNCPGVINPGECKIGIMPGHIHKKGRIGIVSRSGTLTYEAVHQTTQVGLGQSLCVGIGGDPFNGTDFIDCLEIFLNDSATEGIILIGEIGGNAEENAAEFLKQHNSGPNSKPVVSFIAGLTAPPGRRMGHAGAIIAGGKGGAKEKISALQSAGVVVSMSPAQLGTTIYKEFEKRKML

Molecule	least amount detected [1] [ng]	least amount detected [2] [ng]	least amount detected [3] [ng]	least amount detected [4] [ng]	SILAC ratio (light/heavy) [5] [fold]	SILAC ratio (light/heavy) [6] [fold]	SILAC ratio (light/heavy) [7] [fold]	SILAC ratio (light/heavy) [8] [fold]	SILAC ratio (light/heavy) [9] [fold]	SILAC ratio (light/heavy) [10] [fold]	SILAC ratio (light/heavy) [11] [fold]	SILAC ratio (light/heavy) [12] [fold]	SILAC ratio (light/heavy) [13] [fold]	SILAC ratio (light/heavy) [14] [fold]	SILAC ratio (light/heavy) [15] [fold]	SILAC ratio (light/heavy) [16] [fold]	SILAC ratio (light/heavy) [17] [fold]	SILAC ratio (light/heavy) [18] [fold]	SILAC ratio (light/heavy) [20] [fold]	SILAC ratio (light/heavy) [21] [fold]	also measured
anti-1-pHis mAb SC1-1 (antibody)	20	20	20	20	5.29	3.4	19.1	4.18	15.1	15.6	7.21	6.1	3.55	7.2	4.45	9.8	6.5	51.9	4.25	9.1	SILAC ratio (light/heavy) [19]: 56 fold; SILAC ratio (light/heavy) [22]: 1.68 fold; SILAC ratio (light/heavy) [23]: 5.99 fold; SILAC ratio (light/heavy) [24]: 4.49 fold; SILAC ratio (light/heavy) [25]: 2.04 fold
anti-1-pHis mAb SC50-3 (antibody)	20	20	20	20	–	–	–	–	–	–	–	–	–	–	–	–	–	–	–	–	–
B1	–	–	–	–	11.6	4.76	22.8	6.6	118	3.46	10.4	5.98	4.33	2.99	3.32	17.9	3.08	2.14	2.44	4.98	fold enrichment (SILAC ratio light/heavy) [26]: > 2 fold; SILAC ratio (light/heavy) [27]: 4.01 fold; SILAC ratio (light/heavy) [28]: 7.43 fold; SILAC ratio (light/heavy) [23]: 3.2 fold; SILAC ratio (light/heavy) [24]: 2.09 fold; SILAC ratio (light/heavy) [25]: 1.63 fold; SILAC ratio (light/heavy) [29]: 1.21 fold
